Holding throughout (assay): cell-based or functional assay
Assay [1] deals with wild-type microplasmin (WT µPlm), refolded from E. coli µPlg and activated with urokinase (human) (UniProt P00747).
For assay [2], the target named is µPlm mutant F587A (human) (UniProt P00747).
The target in assay [3] is µPlm mutant F587D (human) (UniProt P00747).
Assay [4] has as its target µPlm mutant F587I (human) (UniProt P00747).
The target of assay [5] is µPlm mutant F587M (human) (UniProt P00747).
Assay [6] concerns the target µPlm mutant F587N (human) (UniProt P00747).
Assay [7] has as its target µPlm mutant F587Q (human) (UniProt P00747).
The target of assay [8] is µPlm mutant F587R (human) (UniProt P00747).
The target in assay [9] is µPlm mutant F587V (human) (UniProt P00747).

B1: α2-antiplasmin (α2-AP), purified from human serum (protein)
chain: NQEQVSPLTLLKLGNQEPGGQTALKSPPGVCSRDPTPEQTHRLARAMMAFTADLFSLVAQTSTCPNLILSPLSVALALSHLALGAQNHTLQRLQQVLHAGSGPCLPHLLSRLCQDLGPGAFRLAARMYLQKGFPIKEDFLEQSEQLFGAKPVSLTGKQEDDLANINQWVKEATEGKIQEFLSGLPEDTVLLLLNAIHFQGFWRNKFDPSLTQRDSFHLDEQFTVPVEMMQARTYPLRWFLLEQPEIQVAHFPFKNNMSFVVLVPTHFEWNVSQVLANLSWDTLHPPLVWERPTKVRLPKLYLKHQMDLVATLSQLGLQELFQAPDLRGISEQSLVVSGVQHQSTLELSEVGVEAAAATSIAMSRMSLSSFSVNRPFLFFIFEDTTGLPLFVGSVRNPNPSAPRELKEQQDSPGNKDFLQSLKGFPRGDKLFGPDLKLVPPMEEDYPQFGSPK
Turning to B1, the IC50 (nM) of α2-AP inhibition of µPlm amidolytic activity (S-2403) in assay [1] was 37.9 nM; in assay [2] it was 150 nM; in assay [3], 106 nM; in [4], 46.4 nM; in assay [5], 77.6 nM; in assay [6] it was 105 nM. Also, the IC50 (nM) of α2-AP inhibition of µPlm amidolytic activity (S-2403) in assay [7] is 63.2 nM; in assay [8], 164 nM; in [9], 65.2 nM. Also, the IC50 Fold Increase in [1] was determined as 1 fold; in assay [2] it was 4 fold; in assay [3] it was 2.8 fold; in assay [4], 1.2 fold; in [5] it was 2 fold; in assay [6], 2.8 fold. Further, the IC50 Fold Increase in [7] amounted to 1.7 fold; in [8] it was 4.3 fold; in assay [9] it was 1.7 fold. This molecule also returned an activity remaining at 2 times concentration of α2-AP (% activity remaining) in [2] of 50.

The record behind these values is patent US20210330762A1.
